Here are results for five molecules from patent publication US20210355194A1 (TWIST BIOSCIENCE, published 2021).

Positions count from the first letter of the chain named. Read-outs that look alike come from different tables or passages of the source.

Assay [1] deals with T1, SARS-CoV-2 S1 protein (SARS-CoV-2, UniProt P0DTC2 16-685).
T1 construct: also called SARS-CoV-2 Spike Glycoprotein S1; S1 (subunit 1)
The experiment in a line: Carterra SPR, Fc capture, S1.

Assay [2] concerns the target T1, SARS-CoV-2 S1 protein. Put plainly: inhibitor ELISA, competitor ACE2. A general note: An ELISA detects its analyte on a solid surface through an enzyme-linked reagent.
The target in assay [3] is T1, SARS-CoV-2 S1 protein. Put plainly: Carterra SPR, DB format, S1.
The target of assay [4] is T1, SARS-CoV-2 S1 protein. Put plainly: phage ELISA screen on S1, mean.
Assay [5] deals with T1, SARS-CoV-2 S1 protein. The experiment in a line: ELISA binding titration on coated antigen.
Assay [6] deals with T1, SARS-CoV-2 S1 protein. The experiment in a line: Carterra SPR, direct capture (DC), S1.
For assay [7], the target named is T1, SARS-CoV-2 S1 protein. Put plainly: inhibitor ELISA, competitor ACE2. This is another data set of the same source.
Assay [8] has as its target T1, SARS-CoV-2 S1 protein. The experiment in a line: phage ELISA screen on S1, mean. This is another data set of the same source.
The target of assay [9] is T1, SARS-CoV-2 S1 protein.
Assay [10] has as its target T1, SARS-CoV-2 S1 protein. This is another data set of the same source.

B1: 2-5 (antibody, V domains shown)
VH: EVQLLESGGGLVQPGGSLRLSCAASGFTFSDFAMAWVRQAPGKGLEWVSAISGSGDITYYADSVKGRFTISRDNSKNTLYLQMNSLRAEDTAVYYCAREADGLHSPWHFDLWGQGTLVTVSS
VL: DIQMTQSPSSLSASVGDRVTITCRASQSIHTYLNWYQQKPGKAPKLLIYAASALASGVPSRFSGSGSGTDFTLTISSLQPEDFATYYCQQSYSAPPYTFGQGTKVEIK
notes: also called variant 2-5
A word on the Kd: it is the free concentration of one partner at which half of the binding sites on the other are occupied at equilibrium, for simple one-to-one binding. Higher therefore signals lower affinity. By IC50 is commonly meant the concentration needed to halve the response being measured. A lower IC50 goes with greater potency in that assay. By EC50 is commonly meant the midpoint of the concentration-response curve. With B1, the dissociation constant (Kd) turned out to be 1.9 nM in the assay with SARS-CoV-2 S1 protein [1] and 2.8 nM with SARS-CoV-2 S1 protein [3]. This molecule had an IC50 with SARS-CoV-2 S1 protein [2] of 4.2 nM. The “ELISA(Avg)” value with SARS-CoV-2 S1 protein [4] was 30.8 fold over background. Further, it took 0.133 nM to reach a half-maximal effect with SARS-CoV-2 S1 protein [5] (EC50).

B2: 2-8 (antibody, V domains shown)
VH: B1 VH
VL: B1 VL with H30D
notes: also called variant 2-8
Consider B2, for which the Kd with SARS-CoV-2 S1 protein [1] was found to be 52.8 nM; in the assay with SARS-CoV-2 S1 protein [6], 33.4 nM. Also, the 50% inhibitory concentration (IC50) with SARS-CoV-2 S1 protein [2] came out at 12.2 nM. In the assay with SARS-CoV-2 S1 protein [4], the “ELISA(Avg)” value amounted to 32.4 fold over background. The same molecule showed a concentration for a half-maximal effect (EC50) with SARS-CoV-2 S1 protein [5] of 0.08 nM.

B3: 2-16 (antibody, V domains shown)
VH: EVQLLESGGGLVQPGGSLRLSCAASGFTFSSYAMSWVRQAPGKGLEWVSVISGSGGSTYYADSVKGRFTISRDNSKNTLYLQMNSLRAEDTAVYYCAREGYRDYLWYFDLWGQGTLVTVSS
VL: DIQMTQSPSSLSASVGDRVTITCTGTSSDVGSYDLVSWYQQKPGKAPKLLIYEGNKRPSGVPSRFSGSGSGTDFTLTISSLQPEDFATYYCCSYAGSSVVFGQGTKVEIK
notes: also called variant 2-16
Consider B3, for which, in the assay with SARS-CoV-2 S1 protein [7], the half-maximal inhibitory concentration (IC50) came out at 433 nM. The “ELISA(Avg)” value with SARS-CoV-2 S1 protein [4] and with SARS-CoV-2 S1 protein [8] was 7.1 fold over background each time.

B4: 2-9 (antibody, V domains shown)
VH: EVQLLESGGGLVQPGGSLRLSCAASGFTFPRYAMSWVRQAPGKGLEWVSTISGSGSTTYYADSVKGRFTISRDNSKNTLYLQMNSLRAEDTAVYYCARLIDAFDIWGQGTLVTVSS
VL: DIQMTQSPSSLSASVGDRVTITCRASQRIGTYLNWYQQKPGKAPKLLIYAASNLEGGVPSRFSGSGSGTDFTLTISSLQPEDFATYYCQQNYSTTWTFGQGTKVEIK
notes: also called variant 2-9
In the assay with SARS-CoV-2 S1 protein [9], B4 displayed a 50% effective concentration (EC50) of 12.6 nM. 23.2 nM corresponded to half-maximal inhibition with SARS-CoV-2 S1 protein [10] (IC50).

B5: 2-2 (antibody, V domains shown)
VH: EVQLLESGGGLVQPGGSLRLSCAASGFTFSRHAMNWVRQAPGKGLEWVSGISGSGDETYYADSVKGRFTISRDNSKNTLYLQMNSLRAEDTAVYYCARDLPASYYDSSGYYWHNGMDVWGQGTLVTVSS
VL: DIQMTQSPSSLSASVGDRVTITCRASQTINTYLNWYQQKPGKAPKLLIYSASTLQSGVPSRFSGSGSGTDFTLTISSLQPEDFATYYCQQSYSTFTFGQGTKVEIK
notes: also called variant 2-2
As to B5, the Kd in the assay with SARS-CoV-2 S1 protein [1] turned out to be 58.3 nM; in the assay with SARS-CoV-2 S1 protein [3], 11.7 nM. Also, the IC50 with SARS-CoV-2 S1 protein [2] turned out to be 3.6 nM. The “ELISA(Avg)” value with SARS-CoV-2 S1 protein [4] was 23.4 fold over background. The molecule further showed a concentration for a half-maximal effect (EC50) with SARS-CoV-2 S1 protein [5] of 0.612 nM.
